Target: WT His-tagged PCNA (recombinant Xenopus PCNA) (UniProt P18248)
Sequence (P18248 whole entry): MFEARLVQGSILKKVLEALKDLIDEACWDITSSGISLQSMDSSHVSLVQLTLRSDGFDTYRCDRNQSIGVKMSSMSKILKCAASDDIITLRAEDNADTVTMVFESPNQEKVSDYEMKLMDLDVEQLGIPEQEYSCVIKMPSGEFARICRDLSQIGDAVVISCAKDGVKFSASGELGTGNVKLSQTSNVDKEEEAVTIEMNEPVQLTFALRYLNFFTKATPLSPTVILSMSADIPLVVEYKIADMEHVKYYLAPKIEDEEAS

Substance	exonuclease activity on FAM-labeled gapped dsDNA, purified proteins in vitro
C470A GST-APE2 (mutant of full GST-APE2)	the gapped dsDNA structure was still resected by C470A APE2 or F486A-Y487A APE2 to some extent similar to WT APE2 with the presence of WT PCNA
F486A-Y487A GST-APE2 (mutant of full GST-APE2)	the gapped dsDNA structure was still resected by C470A APE2 or F486A-Y487A APE2 to some extent similar to WT APE2 with the presence of WT PCNA

Source: US20200017862
